Test results published in patent US7566535B2, “Enhanced oligonucleotide-mediated nucleic acid sequence alteration” (University of Delaware, priority 2002, dated 2009).
In the oligonucleotide strings, read from the 5' end, every base follows the letter of its sugar. An asterisk marks phosphorothioate; unmarked linkages are phosphodiester. Other units and linkages are bracketed, terminal groups are in braces. A string of capitals states the bases alone. d = 2'-deoxy (DNA)

What was measured:
pAURHYG(rep)eGFP [1] = test: Correction of pAURHYG(rep)eGFP in yeast LSY678 with or without hydroxyurea; conditions: 5 μg oligo (1.62 μg Hyg10)
pAURHYG(rep)eGFP [2] = test: In vivo correction of episomal pAURHYG(rep)eGFP in yeast, hygromycin-resistant colonies; conditions: for Average colony count on hygromycin plates / hygromycin-resistant colonies per aureobasidin-resistant colony: wild-type LSY678; for Colonies on Hygromycin / Correction Efficiency / Fold: 5 μg oligo

B1: HygE3T/74: 74-base single-stranded DNA oligonucleotide, three phosphorothioate linkages at each end, SEQ ID NO: 8 (nucleic acid)
DNA: dC*dT*dC*dGdTdGdCdTdTdTdCdAdGdCdTdTdCdGdAdTdGdTdAdGdGdAdGdGdGdCdGdTdGdGdAdTdAdCdGdTdCdCdTdGdCdGdGdGdTdAdAdAdTdAdGdCdTdGdCdGdCdCdGdAdTdGdGdTdTdTdC*dT*dA*dC
pAURHYG(rep)eGFP [1]; 20 mM hydroxyurea 4 h pre-treatment, growth time 20 min
  Correction Efficiency: 4.9 hygromycin resistant colonies
pAURHYG(rep)eGFP [1]; 20 mM hydroxyurea 4 h pre-treatment, growth time 40 min
  Correction Efficiency: 9.5 hygromycin resistant colonies
pAURHYG(rep)eGFP [1]; 20 mM hydroxyurea 4 h pre-treatment, growth time 60 min
  Correction Efficiency: 7.8 hygromycin resistant colonies
pAURHYG(rep)eGFP [1]; 20 mM hydroxyurea 4 h pre-treatment, growth time 90 min
  Correction Efficiency: 22.4 hygromycin resistant colonies
pAURHYG(rep)eGFP [1]; no hydroxyurea, growth time 10 min
  Correction Efficiency: 0.15 hygromycin resistant colonies
pAURHYG(rep)eGFP [1]; no hydroxyurea, growth time 20 min
  Correction Efficiency: 2.9 hygromycin resistant colonies
pAURHYG(rep)eGFP [1]; no hydroxyurea, growth time 40 min
  Correction Efficiency: 3.4 hygromycin resistant colonies
pAURHYG(rep)eGFP [1]; no hydroxyurea, growth time 60 min
  Correction Efficiency: 2.32 hygromycin resistant colonies
pAURHYG(rep)eGFP [1]; no hydroxyurea, growth time 90 min
  Correction Efficiency: 0.56 hygromycin resistant colonies
pAURHYG(rep)eGFP [2]; 1.0 μg oligo
  Average colony count on hygromycin plates: 5
  hygromycin-resistant colonies per aureobasidin-resistant colony: 0.03
pAURHYG(rep)eGFP [2]; 2.5 μg oligo
  Average colony count on hygromycin plates: 99
  hygromycin-resistant colonies per aureobasidin-resistant colony: 0.61
pAURHYG(rep)eGFP [2]; 5.0 μg oligo
  Average colony count on hygromycin plates: 204
  hygromycin-resistant colonies per aureobasidin-resistant colony: 1.26
pAURHYG(rep)eGFP [2]; 7.5 μg oligo
  Average colony count on hygromycin plates: 69
  hygromycin-resistant colonies per aureobasidin-resistant colony: 0.42
pAURHYG(rep)eGFP [2]; 10.0 μg oligo
  Average colony count on hygromycin plates: 19
  hygromycin-resistant colonies per aureobasidin-resistant colony: 0.12
pAURHYG(rep)eGFP [2]; Msh2 mutant
  Colonies on Hygromycin: 0
  Correction Efficiency: 0
  Fold: 0x
pAURHYG(rep)eGFP [2]; Msh3 mutant
  Colonies on Hygromycin: 0
  Correction Efficiency: 0
  Fold: 0x
pAURHYG(rep)eGFP [2]; Msh6 mutant
  Colonies on Hygromycin: 1,270
  Correction Efficiency: 2.35
  Fold: 0.55x
pAURHYG(rep)eGFP [2]; Pms1 mutant
  Colonies on Hygromycin: 2,280
  Correction Efficiency: 114
  Fold: 26.76x
pAURHYG(rep)eGFP [2]; Rad1 mutant
  Colonies on Hygromycin: 1,380
  Correction Efficiency: 8.52
  Fold: 2.00x
pAURHYG(rep)eGFP [2]; Rad2 mutant
  Colonies on Hygromycin: 919
  Correction Efficiency: 3.78
  Fold: 0.89x
pAURHYG(rep)eGFP [2]; exo1 mutant
  Colonies on Hygromycin: 486
  Correction Efficiency: 3.92
  Fold: 0.92x
pAURHYG(rep)eGFP [2]; mre11 mutant
  Colonies on Hygromycin: 12
  Correction Efficiency: 0.63
  Fold: 0.15x
pAURHYG(rep)eGFP [2]; rad10 mutant
  Colonies on Hygromycin: 54
  Correction Efficiency: 0.15
  Fold: 0.04x
pAURHYG(rep)eGFP [2]; rad23 mutant
  Colonies on Hygromycin: 66
  Correction Efficiency: 0.44
  Fold: 0.10x
pAURHYG(rep)eGFP [2]; rad50 mutant
  Colonies on Hygromycin: 336
  Correction Efficiency: 2.09
  Fold: 0.49x
pAURHYG(rep)eGFP [2]; rad51/52 mutant
  Colonies on Hygromycin: 212
  Correction Efficiency: 5.45
  Fold: 1.28x
pAURHYG(rep)eGFP [2]; rad51 mutant
  Colonies on Hygromycin: 104
  Correction Efficiency: 0.62
  Fold: 0.14x
pAURHYG(rep)eGFP [2]; rad52 mutant
  Colonies on Hygromycin: 266
  Correction Efficiency: 3.29
  Fold: 0.77x
pAURHYG(rep)eGFP [2]; rad54 mutant
  Colonies on Hygromycin: 2
  Correction Efficiency: 0.02
  Fold: 0x
pAURHYG(rep)eGFP [2]; rad55 mutant
  Colonies on Hygromycin: 0
  Correction Efficiency: 0
  Fold: 0x
pAURHYG(rep)eGFP [2]; rad57 mutant
  Colonies on Hygromycin: 984
  Correction Efficiency: 17.26
  Fold: 4.05x
pAURHYG(rep)eGFP [2]; rad59 mutant
  Colonies on Hygromycin: 1,198
  Correction Efficiency: 3.06
  Fold: 0.71x
pAURHYG(rep)eGFP [2]; wild type
  Colonies on Hygromycin: 1,218
  Correction Efficiency: 4.26
  Fold: 1x
pAURHYG(rep)eGFP [2]; xrs2 mutant
  Colonies on Hygromycin: 29
  Correction Efficiency: 0.66
  Fold: 0.15x
